In patent US20170022281A1 (AbbVie / Abbott, published 2017):

T1: human PRLR on cells (human, UniProt P16471 25-622)
T1 sequence: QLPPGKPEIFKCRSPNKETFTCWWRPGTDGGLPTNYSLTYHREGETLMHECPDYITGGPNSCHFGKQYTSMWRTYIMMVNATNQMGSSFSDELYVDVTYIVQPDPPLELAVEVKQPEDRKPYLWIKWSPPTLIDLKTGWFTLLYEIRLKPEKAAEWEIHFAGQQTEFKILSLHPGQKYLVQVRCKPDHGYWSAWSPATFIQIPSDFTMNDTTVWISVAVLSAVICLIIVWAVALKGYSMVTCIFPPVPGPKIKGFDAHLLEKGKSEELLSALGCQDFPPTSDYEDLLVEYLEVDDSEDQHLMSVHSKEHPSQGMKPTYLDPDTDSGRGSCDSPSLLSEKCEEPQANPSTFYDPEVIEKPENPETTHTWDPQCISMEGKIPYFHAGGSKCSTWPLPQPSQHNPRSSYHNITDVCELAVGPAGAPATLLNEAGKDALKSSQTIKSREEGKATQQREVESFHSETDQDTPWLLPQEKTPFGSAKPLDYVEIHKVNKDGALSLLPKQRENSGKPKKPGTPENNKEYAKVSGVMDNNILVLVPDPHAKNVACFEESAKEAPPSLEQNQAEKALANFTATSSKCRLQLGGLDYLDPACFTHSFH

T2: cyno PRLR (Biacore antigen) (cyno, UniProt A0A2K5WXK1 25-234)
T2 construct: also called cyPRLR
T2 sequence: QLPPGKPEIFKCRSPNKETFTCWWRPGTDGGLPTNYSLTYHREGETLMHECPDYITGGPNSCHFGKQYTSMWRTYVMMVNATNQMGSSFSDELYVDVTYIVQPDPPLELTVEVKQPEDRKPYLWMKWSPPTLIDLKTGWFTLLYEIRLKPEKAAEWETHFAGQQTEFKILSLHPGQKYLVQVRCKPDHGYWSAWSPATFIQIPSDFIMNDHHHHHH

T3: human PRLR (Biacore antigen) (human, UniProt P16471 25-234, limits assumed)
T3 construct: The construct injected over captured antibody is not described (a soluble form is likely); also called huPRLR
T3 sequence: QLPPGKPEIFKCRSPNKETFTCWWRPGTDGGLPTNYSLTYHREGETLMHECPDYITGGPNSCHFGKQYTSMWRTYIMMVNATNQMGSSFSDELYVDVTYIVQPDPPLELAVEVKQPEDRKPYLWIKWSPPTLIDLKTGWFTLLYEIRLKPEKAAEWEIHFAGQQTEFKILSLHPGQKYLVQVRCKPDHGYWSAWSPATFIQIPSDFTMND


Columns and labels:
human PRLR on cells = target: T1, human PRLR on cells; test: cell-based or functional assay
[1] = target: T2, cyno PRLR (Biacore antigen); test: SPR Biacore
Summary of the method: (§1)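 Association rate, dissociation rate and dissociation constant were measured by surface plasmon resonance on a Biacore instrument. PRLR antigen was tested at 600 nM, 66.67 nM and 7.41 nM, a 3-point, 9-fold dilution series. Constants came from a 1:1 binding model fit (local Rmax, mass-transport term included) in Biacore T200 Evaluation Software.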

[2] = target: T3, human PRLR (Biacore antigen); test: SPR Biacore
Summary of the method: as §1

[3] = target: cyno PRLR on Baf3-cyPRLR cells (cyno); test: cell-based or functional assay

Row | Binder | Baf3-hPRLR proliferation IC50 (human PRLR on cells) | further results
1 | Ab32 (antibody, human IgG1, kappa) heavy: not shown light: DIVMTQTPLSLSVTPGQPASISCRSSQRLVHSNGNTYLHWYLQKPGQSPQLLIYKVSNRFSGVPDRFSGSGSGTDFTLKISRVEAEDVGVYYCSQSTHVPWTFGGGTKVEIKRTVAAPSVFIFPPSDEQLKSGTASVVCLLNNFYPREAKVQWKVDNALQSGNSQESVTEQDSKDSTYSLSSTLTLSKADYEKHKVYACEVTHQGLSSPVTKSFNRGEC | > 30 µg/mL | 
2 | Ab41 (antibody, human IgG1, kappa) heavy: not shown light: DIVMTQTPLSLSVTPGQPASISCRSSQSLVHSNGNTYLHWYLQKPGQSPQLLIYKVSNRFSGVPDRFSGSGSGTDFTLKISRVEAEDVGVYYCSQSTHVPFTFGGGTKVEIKRTVAAPSVFIFPPSDEQLKSGTASVVCLLNNFYPREAKVQWKVDNALQSGNSQESVTEQDSKDSTYSLSSTLTLSKADYEKHKVYACEVTHQGLSSPVTKSFNRGEC | 4.38 µg/mL | 
3 | Ab34 (antibody, human IgG1, kappa) heavy: not shown light: DVVMTQTPLSLSVTPGQPASISCRSSQRLVHSNGNTYLHWYLQKPGQSPQLLIYKVSNRFSGVPDRFSGSGSGTDFTLKISRVEAEDVGVYYCSQSTHVPWTFGGGTKVEIKRTVAAPSVFIFPPSDEQLKSGTASVVCLLNNFYPREAKVQWKVDNALQSGNSQESVTEQDSKDSTYSLSSTLTLSKADYEKHKVYACEVTHQGLSSPVTKSFNRGEC | > 30 µg/mL | 
4 | Ab43 (antibody, human IgG1, kappa) heavy: not shown light: DVVMTQTPLSLSVTPGQPASISCRSSQSLVHSNGNTYLHWYLQKPGQSPQLLIYKVSNRFSGVPDRFSGSGSGTDFTLKISRVEAEDVGVYYCSQSTHVPFTFGGGTKVEIKRTVAAPSVFIFPPSDEQLKSGTASVVCLLNNFYPREAKVQWKVDNALQSGNSQESVTEQDSKDSTYSLSSTLTLSKADYEKHKVYACEVTHQGLSSPVTKSFNRGEC | 6.75 µg/mL | 
5 | Ab33 (antibody, human IgG1, kappa, V domains shown) VH: EVQLVQSGAEVKKPGSSVKVSCKASGGTFTSFWMHWVRQAPGQGLEWIGVIDPSDTYTNYAQKFQGRVTITVDESTSTAYMELSSLRSEDTAVYYCARGDYSNWFTYWGQGTLVTVSS VL: DVVMTQTPLSLSVTPGQPASISCRSSQRLVHSNGNTYLHWYLQKPGQSPQLLIYKVSNRFSGVPDRFSGSGSGTDFTLKISRVEAEDVGVYFCSQSTHVPWTFGGGTKVEIKR | > 30 µg/mL | 
6 | Ab53 (antibody, human IgG1, kappa, V domains shown, humanized from Ab7 (back mutations on Ab36); G1; also called Ab4 HC.1b.2 and Ab4 LC.1a) VH: EVQLVQSGAEVKKPGSSVKVSCKASGYTFTSYWIHWVRQAPGQGLEWIGEIDPSDSYTNYNQKFKGRVTITVDKSTSTAYMELSSLRSEDTAVYYCARSFFTNWFAYWGQGTLVTVSS VL: DVVMTQTPLSLSVTPGQPASISCRSSQSLVHSNGNTYLHWYLQKPGQSPQLLIYKVSNRFSGVPDRFSGSGSGTDFTLKISRVEAEDVGVYFCSQSTHVPFTFGGGTKVEIKR | 1.03 µg/mL | Kd [1]: 7.8 nM; koff [1]: 0.00089 s⁻¹; kon [1]: 110000 M⁻¹ s⁻¹; Kd [2]: 8.5 nM; koff [2]: 0.001 s⁻¹; kon [2]: 120000 M⁻¹ s⁻¹
7 | Ab42 (antibody, human IgG1, kappa, V domains shown) VH: EVQLVQSGAEVKKPGSSVKVSCKASGGTFTSYWIHWVRQAPGQGLEWIGEIDPSDSYTNYAQKFQGRVTITVDKSTSTAYMELSSLRSEDTAVYYCARSFFTNWFAYWGQGTLVTVSS VL: DVVMTQTPLSLSVTPGQPASISCRSSQSLVHSNGNTYLHWYLQKPGQSPQLLIYKVSNRFSGVPDRFSGSGSGTDFTLKISRVEAEDVGVYFCSQSTHVPFTFGGGTKVEIKR | 4.76 µg/mL | 
8 | chAb9 (antibody, human IgG1, kappa, V domains shown) VH: EVQLQQSGPELVRPGASVKISCKASGYSFTDYNMHWVKQSHGKSLEWIGYIYPYNGGAGYNQKFKSKATMNVGISSSTAYMELRSLTSEDSAVYYCARGDGNYVGDMDYWGQGTSVTVSS VL: DIQMTQSPASLSASVGETVTITCRASENIYSYLAWYQQKQGKSPQLLVYNAKTLAEGVPSRFSGSGSGTQFSLKINSLQPEDFGSYYCQHHSGTPFTFGSGTKLEIKT | 0.2 µg/mL | Baf3-cyPRLR proliferation IC50 [3]: 10.4 µg/mL
9 | Ab22 (antibody, human IgG1, kappa, V domains shown) VH: EVQLVQSGAEVKKPGSSVKVSCKASGGTFTTYWMHWVRQAPGQGLEWIGEIDPSDSYSNYAQKFQGRVTITVDKSTSTAYMELSSLRSEDTAVYYCARNGGLGPAWFSYWGQGTLVTVSS VL: DIQMTQSPSSVSASVGDRVTITCKASQYVGTAVAWYQQKPGKAPKLLIYSASNRYTGVPSRFSGSGSGTDFTLTISSLQPEDFATYYCQQYSSYPWTFGGGTKVEIKR | > 30 µg/mL | 
10 | Ab24 (antibody, human IgG1, kappa, V domains shown) VH: EVQLVQSGAEVKKPGSSVKVSCKASGGTFTTYWMHWVRQAPGQGLEWIGEIDPSDSYSNYAQKFQGRVTITVDKSTSTAYMELSSLRSEDTAVYYCARNGGLGPAWFSYWGQGTLVTVSS VL: EIVMTQSPATLSVSPGERATLSCKASQYVGTAVAWYQQKPGQAPRLLIYSASNRYTGIPARFSGSGSGTEFTLTISSLQSEDFAVYYCQQYSSYPWTFGGGTKVEIKR | > 30 µg/mL | 
11 | Ab23 (antibody, human IgG1, kappa, V domains shown) VH: EVQLVQSGAEVKKPGSSVKVSCKASGGTFTTYWMHWVRQAPGQGLEWIGEIDPSDSYSNYAQKFQGRVTITVDKSTSTAYMELSSLRSEDTAVYYCARNGGLGPAWFSYWGQGTLVTVSS VL: DIQMTQSPSSVSASVGDRVTITCKASQYVGTAVAWYQQKPGKSPKLLIYSASNRYTGVPSRFSDSGSGTDFTLTISSLQPEDFATYFCQQYSSYPWTFGGGTKVEIKR | > 30 µg/mL | 
12 | Ab25 (antibody, human IgG1, kappa, V domains shown) VH: EVQLVQSGAEVKKPGSSVKVSCKASGGTFTTYWMHWVRQAPGQGLEWIGEIDPSDSYSNYAQKFQGRVTITVDKSTSTAYMELSSLRSEDTAVYYCARNGGLGPAWFSYWGQGTLVTVSS VL: EIVMTQSPATLSVSPGERATLSCKASQYVGTAVAWYQQKPGQSPRLLIYSASNRYTGVPARFSDSGSGTEFTLTISSLQSEDFAVYFCQQYSSYPWTFGGGTKVEIKR | > 30 µg/mL | 
